Reference: US20250289893A1 (OXFORD UNIVERSITY INNOVATION, published 2025)

Experiments:
[1] = biological target: T1, human CD1a expressed on cells (human, UniProt P06126 17-327; P61769 21-119); test: flow cytometry, C1R cells, 0.0316 µg/ml antibody
T1 construct: also called HEK - CD1a; C1R - CD1a
Description: (§1) Binding to proteins expressed on HEK, C1R and MOLT4 cell lines was assessed. […] The C1R-CD1a, C1R-empty vector and MOLT4 cell lines were washed in 1×PBS on the day required. All cell lines were counted and resuspended in 1×PBS and then stained for 30 minutes at 37° C. using the DiI or DiO cellular stains (Invitrogen). Cells were washed with flow cytometry buffer (1% bovine serum albumin, 2 mM EDTA and 0.1% sodium azide in PBS) before mixing 2 DiI-stained and DiO-stained populations together. The cells (20 μl/well) were then added to dilutions of antibody sample (B cell culture supernatant, TAP supernatant, clone supernatant, purified antibody solution) (20 μl/well) and incubated for 1 hour at 4° C. in a flow cytometry assay plate, before being washed with flow cytometry buffer. 10 μl/well of Alexafluor647-conjugated goat anti-species IgG Fc-specific F(ab′)2 fragment (Jackson ImmunoResearch), diluted 1:2500 in flow cytometry buffer, was added and incubated at 4° C. for 30 minutes, followed by washing with wash buffer. The fluorescence intensity was then measured on an iQue screener PLUS.
(§2) Binding was quantified as fold change in fluorescence intensity geomean over background assessed by flow cytometry.

[2] = biological target: Chinese variant CD1a protein (human) (UniProt P06126); test: ELISA, 10 µg/ml antibody
[3] = biological target: T2, human CD1a protein (pool B) (human, UniProt P06126 18-295, limits assumed); test: ELISA, 3.16 µg/ml antibody
T2 construct: Recombinant protein of the ELISA (coated) and the Biacore T200 titration; whole entry named; also called human CD1a pool B; full length CD1a
Description: (§3) CD1a-specific antibodies were identified by ELISA. […] 20 μl/well of peroxidase-conjugated goat anti-species IgG Fc-specific F(ab′)2 fragment (Jackson ImmunoResearch), diluted 1:5000 in block buffer was added and incubated at room temperature for 1 hour, followed by washing with wash buffer.
(§4) The antibodies were titrated through a dilution series and compared to a control rabbit IgG antibody.

[4] = biological target: Cynomolgus monkey CD1a expressed on HEK-293 cells (Cynomolgus monkey, UniProt A0A2K5VQ68 17-326); test: flow cytometry, HEK-293 cells, 0.1 µg/ml antibody
Description: as §1, §2

[5] = biological target: T2, human CD1a protein (pool B); test: ELISA, 31.6 µg/ml antibody
Description: as §3, §4

[6] = biological target: T2, human CD1a protein (pool B); test: SPR (Biacore T200), antibody captured, human CD1a titrated, 1:1 binding model
Description: The affinity of the purified antibodies to human CD1a was assessed using a Biacore T200 instrument (GE Healthcare) by capturing the antibody to an immobilized anti-species IgG F(ab′)2 followed by titration of human CD1a. Affinipure Goat anti-species IgG-F(ab′)2 fragment specific (Jackson ImmunoResearch) was immobilized on a CM5 Sensor Chip (GE Healthcare) via amine coupling chemistry to a capture level of ˜5000 response units (RUs). HBS-EP+ buffer (10 mM HEPES pH 7.4, 0.15 M NaCl, 3 mM EDTA, 0.05% Surfactant P20, GE Healthcare) was used as the running buffer with a flow rate of 10 μL/min. A 10 μL injection of test antibody at 0.5 μg/mL was used for capture by the immobilized Goat Anti-species Fab.
The surface was regenerated between cycles by injection of 2×10 μL of 40 mM HCl, interspersed by a 10 μL injection of 5 mM NaOH at flowrate of 10 μL/min. Background subtraction binding curves were analyzed using the Biacore T200 evaluation software following standard procedures. Kinetic parameters were determined from the fitting algorithm. This assay was performed at the clone supernatant and purified antibody stage.
Affinity was required to be <100 nM to be considered for progression.

[7] = biological target: T3, human CD1d expressed on HEK-293 cells (human, UniProt P15813 20-335; P61769 21-119); test: flow cytometry, HEK-293 cells
T3 construct: also called HEK - CD1d
Description: as §1
(§5) HEK-293 cells were transiently transfected with human CD1a, CD1b, CD1c or CD1d and co-transfected with human β2M.

[8] = biological target: T4, human CD1b expressed on HEK-293 cells (human, UniProt P29016 18-333; P61769 21-119); test: flow cytometry, HEK-293 cells
T4 construct: also called HEK - CD1b
Description: as §1, §5

[9] = biological target: T5, human CD1c expressed on HEK-293 cells (human, UniProt P29017 18-333; P61769 21-119); test: flow cytometry, HEK-293 cells
T5 construct: also called HEK - CD1c
Description: as §1, §5

[10] = biological target: T3, human CD1d expressed on HEK-293 cells; test: flow cytometry, HEK-293 cells, 1 µg/ml antibody
Description: as §1, §5

[11] = biological target: T1, human CD1a expressed on cells; test: flow cytometry, HEK-293 cells, 1 µg/ml antibody
Description: as §1, §5

[12] = biological target: T4, human CD1b expressed on HEK-293 cells; test: flow cytometry, HEK-293 cells, 1 µg/ml antibody
Description: as §1, §5

[13] = biological target: T5, human CD1c expressed on HEK-293 cells; test: flow cytometry, HEK-293 cells, 1 µg/ml antibody
Description: as §1, §5

[14] = biological target: T3, human CD1d expressed on HEK-293 cells; test: flow cytometry, HEK-293 cells, 0.1 µg/ml antibody
Description: as §1, §5

[15] = biological target: T1, human CD1a expressed on cells; test: flow cytometry, HEK-293 cells, 0.1 µg/ml antibody
Description: as §1, §5

[16] = biological target: T4, human CD1b expressed on HEK-293 cells; test: flow cytometry, HEK-293 cells, 0.1 µg/ml antibody
Description: as §1, §5

[17] = biological target: T5, human CD1c expressed on HEK-293 cells; test: flow cytometry, HEK-293 cells, 0.1 µg/ml antibody
Description: as §1, §5

[18] = biological target: T1, human CD1a expressed on cells; test: flow cytometry, C1R cells, 31.6 µg/ml antibody
Description: as §1, §2

[19] = biological target: T3, human CD1d expressed on HEK-293 cells; test: flow cytometry, HEK-293 cells, 3.16 µg/ml antibody
Description: as §1, §5

[20] = biological target: T1, human CD1a expressed on cells; test: flow cytometry, HEK-293 cells, 3.16 µg/ml antibody
Description: as §1, §5

[21] = biological target: T4, human CD1b expressed on HEK-293 cells; test: flow cytometry, HEK-293 cells, 3.16 µg/ml antibody
Description: as §1, §5

[22] = biological target: T5, human CD1c expressed on HEK-293 cells; test: flow cytometry, HEK-293 cells, 3.16 µg/ml antibody
Description: as §1, §5

[23] = biological target: chimeric CD1a pool B protein [human CD1a lipid binding domain, mouse CD1d Ig domain] (human; mouse, UniProt P06126 18-201; P11609 205-297, limits assumed); test: ELISA, 0.1 µg/ml antibody
Description: as §3
The antibodies were titrated through a dilution series and compared to a control rabbit IgG antibody. […] Data shown for purified antibodies.

[24] = biological target: T1, human CD1a expressed on cells; test: flow cytometry, C1R cells, 1 µg/ml antibody
Description: as §1, §2

[25] = biological target: T1, human CD1a expressed on cells; test: flow cytometry, MOLT4 cells, 100 µg/ml antibody
Description: CD1a-specific antibodies were identified by flow cytometry. Binding to proteins expressed on HEK, C1R and MOLT4 cell lines was assessed. […] The C1R-CD1a, C1R-empty vector and MOLT4 cell lines were washed in 1×PBS on the day required. All cell lines were counted and resuspended in 1×PBS and then stained for 30 minutes at 37° C. using the DiI or DiO cellular stains (Invitrogen). Cells were washed with flow cytometry buffer (1% bovine serum albumin, 2 mM EDTA and 0.1% sodium azide in PBS) before mixing 2 DiI-stained and DiO-stained populations together. The cells (20 μl/well) were then added to dilutions of antibody sample (B cell culture supernatant, TAP supernatant, clone supernatant, purified antibody solution) (20 μl/well) and incubated for 1 hour at 4° C. in a flow cytometry assay plate, before being washed with flow cytometry buffer. 10 μl/well of Alexafluor647-conjugated goat anti-species IgG Fc-specific F(ab′)2 fragment (Jackson ImmunoResearch), diluted 1:2500 in flow cytometry buffer, was added and incubated at 4° C. for 30 minutes, followed by washing with wash buffer. The fluorescence intensity was then measured on an iQue screener PLUS.
as §2

T2 sequence (P06126 18-295 limits assumed): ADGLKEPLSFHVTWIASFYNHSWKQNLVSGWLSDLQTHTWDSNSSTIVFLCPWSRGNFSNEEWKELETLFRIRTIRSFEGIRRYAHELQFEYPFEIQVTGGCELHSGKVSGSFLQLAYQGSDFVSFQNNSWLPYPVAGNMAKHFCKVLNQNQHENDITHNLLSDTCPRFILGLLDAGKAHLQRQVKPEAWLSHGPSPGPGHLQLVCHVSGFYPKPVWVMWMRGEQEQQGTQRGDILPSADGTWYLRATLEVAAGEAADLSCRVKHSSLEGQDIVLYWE
Chinese variant CD1a protein (human), sequence (P06126 18-295, change not shown): as the sequence (P06126 18-295 limits assumed) above
chimeric CD1a pool B protein [human CD1a lipid binding domain, mouse CD1d Ig domain], sequence (P06126 other isoform, or with tags, fused parts or gaps mutant limits assumed): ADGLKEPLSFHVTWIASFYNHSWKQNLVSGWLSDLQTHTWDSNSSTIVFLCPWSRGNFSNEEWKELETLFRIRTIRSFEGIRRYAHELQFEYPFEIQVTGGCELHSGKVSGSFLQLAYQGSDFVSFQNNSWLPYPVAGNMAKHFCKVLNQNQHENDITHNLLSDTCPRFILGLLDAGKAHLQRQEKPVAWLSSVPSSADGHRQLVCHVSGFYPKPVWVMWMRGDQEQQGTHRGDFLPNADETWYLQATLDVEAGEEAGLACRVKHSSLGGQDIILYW
Cynomolgus monkey CD1a expressed on HEK-293 cells, sequence (A0A2K5VQ68 entry or part of it): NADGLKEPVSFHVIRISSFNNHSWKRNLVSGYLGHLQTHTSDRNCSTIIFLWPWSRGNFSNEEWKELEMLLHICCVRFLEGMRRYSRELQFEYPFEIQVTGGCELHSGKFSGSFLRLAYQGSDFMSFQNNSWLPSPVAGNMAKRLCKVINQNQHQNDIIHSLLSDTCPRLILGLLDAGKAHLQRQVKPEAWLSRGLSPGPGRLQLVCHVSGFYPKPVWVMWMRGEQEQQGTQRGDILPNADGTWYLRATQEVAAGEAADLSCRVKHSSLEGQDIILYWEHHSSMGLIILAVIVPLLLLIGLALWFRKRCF

B1: 116 (VR12117) (antibody, V domains shown)
VH: QSVEESGGRLVTPGTPLTLTCTVSGFSLSNYAMSWVRQAPGKGLEWIGIIYTTGFTYYASWVKGRFTISKTSTTVDLKITSPTTEDTATYFCARGLATYVSPPTRLDLWGQGTLVTVSS
VL: AQVLTQTPSPVSAAVGGTVTINCQASQSIYNSKNLAWYQQKPGQPPKLLIYSASTLASGVPSRFKGSGSGTQFTLTISDLECDDAATYYCQGEFSCSSVDCATFGGGTEVVVK
notes: also called OX116
[1]
  Fluorescence Intensity Geomean (normalized to background): 24.1 fold over background
[2]
  Optical Density (OD): 1.51 OD
[3]
  Optical Density (OD): 1.15 OD
[4]
  Fluorescence Intensity Geomean (normalized to background): 1 fold over background
[5]
  Optical Density (OD): 1.16 OD
[6]
  Kd: 2.89 nM
  koff: 0.0014 s⁻¹
  kon: 483000 M⁻¹ s⁻¹
[7]
  binding result: no binding (tested: 100 µg/ml (highest tested))
[8]
  binding result: no binding (tested: 100 µg/ml (highest tested))
[9]
  binding result: no binding (tested: 100 µg/ml (highest tested))
[10]
  Fluorescence Intensity Geomean (normalized to background): 1 fold over background
[11]
  Fluorescence Intensity Geomean (normalized to background): 48.2 fold over background
[12]
  Fluorescence Intensity Geomean (normalized to background): 1.1 fold over background
[13]
  Fluorescence Intensity Geomean (normalized to background): 1.1 fold over background
[14]
  Fluorescence Intensity Geomean (normalized to background): 1.1 fold over background
[15]
  Fluorescence Intensity Geomean (normalized to background): 26.7 fold over background
[16]
  Fluorescence Intensity Geomean (normalized to background): 1 fold over background
[17]
  Fluorescence Intensity Geomean (normalized to background): 1 fold over background
[18]
  Fluorescence Intensity Geomean (normalized to background): 13.7 fold over background
[19]
  Fluorescence Intensity Geomean (normalized to background): 1.1 fold over background
[20]
  Fluorescence Intensity Geomean (normalized to background): 21.9 fold over background
[21]
  Fluorescence Intensity Geomean (normalized to background): 1 fold over background
[22]
  Fluorescence Intensity Geomean (normalized to background): 1.1 fold over background
[23]
  Optical Density (OD): 1.25 OD
[24]
  Fluorescence Intensity Geomean (normalized to background): 28.7 fold over background
[25]
  Fluorescence Intensity Geomean (normalized to background): 3.7 fold over background
